Measured values published in paper PMC4931317, “UtpA and UtpB chaperone nascent pre-ribosomal RNA and U3 snoRNA to initiate eukaryotic ribosome assembly” (Nature Communications, 2016).
Values belong to the binder of their own block, whether it stands above or below them.

Assays:
Utp10-3C-GFP [1] = target: T1, Utp10-3C-GFP (S. cerevisiae, UniProt P42945 1-1769); assay: pull-down + SEC; endogenous UtpA from YSK32 lysate captured via Utp10-GFP on anti-GFP nanobody sepharose; 50 mM HEPES-NaOH pH 7.6, 200 mM NaCl, 1 mM EDTA, 4 °C; eluted with TEV and 3C protease; Superose 6; peak fraction on Coomassie-stained SDS-PAGE; conditions: partners not purified
T1 construct: Utp10, S. cerevisiae, subunit of UtpA (200 kDa); GFP is joined through a 3C protease site; it holds the protein on the beads in a1-a3 and is cleaved off by 3C on elution, so it is absent in the SEC step and in the DSS cross-linking (a6); also called Utp10-GFP; Utp10-sbp-H14-3C-GFP; source: S. cerevisiae YSK32, C-terminal tag integrated in the genome, endogenous level; captured from lysate on …

Utp10-3C-GFP [2] = target: T1, Utp10-3C-GFP; assay: cross-linking; DSS (0.2 mM, H12/D12) cross-linking of SEC-purified endogenous UtpA, 25 °C, 30 min, 50 mM HEPES-NaOH pH 7.6, 200 mM NaCl, 1 mM EDTA; cross-linked peptides found by mass spectrometry (pLink); conditions: both partners purified
Utp4 = target: T2, Utp4 (S. cerevisiae, UniProt Q06679 1-776); assay: as above; conditions: both partners purified
T2 construct: Utp4, S. cerevisiae, subunit of UtpA; No tag is named for it in either strain; strains are in Supplementary Data 1; source: endogenous, S. cerevisiae YSK32, co-purified with Utp10-GFP; overexpressed (galactose promoter) in S. cerevisiae YSK122, co-purified with Utp15-mCherry
T2 sequence (looked up): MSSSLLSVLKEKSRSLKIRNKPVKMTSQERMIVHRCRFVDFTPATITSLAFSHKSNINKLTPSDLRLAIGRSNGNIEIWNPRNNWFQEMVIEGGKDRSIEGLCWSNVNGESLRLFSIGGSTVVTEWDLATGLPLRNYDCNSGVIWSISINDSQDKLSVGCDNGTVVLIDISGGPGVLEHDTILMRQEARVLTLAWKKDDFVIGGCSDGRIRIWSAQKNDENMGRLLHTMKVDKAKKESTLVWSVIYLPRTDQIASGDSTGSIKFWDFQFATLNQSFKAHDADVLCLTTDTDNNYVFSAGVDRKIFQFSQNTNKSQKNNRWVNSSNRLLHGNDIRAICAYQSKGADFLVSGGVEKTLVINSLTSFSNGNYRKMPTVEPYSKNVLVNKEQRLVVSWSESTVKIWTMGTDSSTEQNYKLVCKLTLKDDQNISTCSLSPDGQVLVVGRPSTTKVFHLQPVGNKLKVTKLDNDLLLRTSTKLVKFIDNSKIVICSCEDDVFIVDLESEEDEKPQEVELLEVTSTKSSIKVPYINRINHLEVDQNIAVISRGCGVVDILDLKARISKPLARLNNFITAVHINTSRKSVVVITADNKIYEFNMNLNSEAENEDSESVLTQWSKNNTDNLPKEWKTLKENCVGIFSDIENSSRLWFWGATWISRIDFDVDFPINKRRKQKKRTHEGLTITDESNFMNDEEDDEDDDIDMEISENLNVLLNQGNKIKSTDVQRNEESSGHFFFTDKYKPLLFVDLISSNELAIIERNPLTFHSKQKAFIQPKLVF

T1 sequence (P42945 whole entry): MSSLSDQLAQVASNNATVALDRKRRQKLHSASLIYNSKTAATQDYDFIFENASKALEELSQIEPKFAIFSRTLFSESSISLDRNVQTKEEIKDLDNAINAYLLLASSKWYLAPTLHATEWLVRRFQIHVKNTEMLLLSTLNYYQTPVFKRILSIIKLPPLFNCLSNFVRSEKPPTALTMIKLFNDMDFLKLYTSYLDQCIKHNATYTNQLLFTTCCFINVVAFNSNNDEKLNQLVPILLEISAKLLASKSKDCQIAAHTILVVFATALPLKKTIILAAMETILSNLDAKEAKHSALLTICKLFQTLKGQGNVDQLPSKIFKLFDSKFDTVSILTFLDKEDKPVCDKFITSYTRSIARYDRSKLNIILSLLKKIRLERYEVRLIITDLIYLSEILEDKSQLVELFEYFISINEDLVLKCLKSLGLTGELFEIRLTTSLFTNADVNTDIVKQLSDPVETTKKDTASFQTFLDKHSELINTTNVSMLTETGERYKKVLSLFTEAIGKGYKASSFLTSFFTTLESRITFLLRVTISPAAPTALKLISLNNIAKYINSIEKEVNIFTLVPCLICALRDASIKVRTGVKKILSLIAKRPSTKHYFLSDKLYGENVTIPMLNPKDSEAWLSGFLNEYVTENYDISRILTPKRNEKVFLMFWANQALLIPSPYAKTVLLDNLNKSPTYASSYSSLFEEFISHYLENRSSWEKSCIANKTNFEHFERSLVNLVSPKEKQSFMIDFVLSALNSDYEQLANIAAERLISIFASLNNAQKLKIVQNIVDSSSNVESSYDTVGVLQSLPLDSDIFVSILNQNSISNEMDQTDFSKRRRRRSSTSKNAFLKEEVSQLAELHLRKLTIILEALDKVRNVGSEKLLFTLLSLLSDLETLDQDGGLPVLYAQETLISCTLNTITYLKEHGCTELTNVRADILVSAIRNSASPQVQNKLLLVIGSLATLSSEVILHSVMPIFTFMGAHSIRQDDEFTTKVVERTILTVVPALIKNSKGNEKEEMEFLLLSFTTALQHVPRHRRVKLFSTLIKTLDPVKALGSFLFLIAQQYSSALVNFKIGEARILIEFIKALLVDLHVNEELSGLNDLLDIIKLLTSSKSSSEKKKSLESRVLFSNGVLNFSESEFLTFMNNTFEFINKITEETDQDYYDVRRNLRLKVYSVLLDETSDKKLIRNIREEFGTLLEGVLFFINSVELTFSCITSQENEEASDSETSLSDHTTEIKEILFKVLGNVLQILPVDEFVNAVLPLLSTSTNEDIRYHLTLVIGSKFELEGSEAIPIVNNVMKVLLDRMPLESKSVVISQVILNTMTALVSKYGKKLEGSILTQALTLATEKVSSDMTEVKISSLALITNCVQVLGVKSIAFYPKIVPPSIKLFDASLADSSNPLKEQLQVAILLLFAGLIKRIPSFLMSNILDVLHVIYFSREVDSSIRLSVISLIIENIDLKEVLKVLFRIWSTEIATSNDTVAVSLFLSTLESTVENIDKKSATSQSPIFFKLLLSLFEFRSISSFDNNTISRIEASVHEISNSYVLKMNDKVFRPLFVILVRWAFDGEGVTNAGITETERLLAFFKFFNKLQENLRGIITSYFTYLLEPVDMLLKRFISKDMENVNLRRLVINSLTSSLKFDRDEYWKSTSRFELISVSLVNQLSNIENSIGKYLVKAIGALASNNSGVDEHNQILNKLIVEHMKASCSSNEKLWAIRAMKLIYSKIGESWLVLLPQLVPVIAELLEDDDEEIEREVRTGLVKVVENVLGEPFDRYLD

binding result (Utp10-3C-GFP [1]): binds
B1: Utp5 (natural protein, S. cerevisiae, UniProt Q04177 1-643, looked up)
chain: MDSPVLQSAYDPSGQYLCYVTVALDKQRVGVQPTQRATSSGVDTVWNENFLYLEDSKLKVTCLKWVNLASSDTVAIILGMNNGEIWLYSVLANEVTYKFTTGNSYEIKDIDLMGNQLWCIDSSDAFYQFDLLQFKLLQHFRINNCVQLNKLTIVPAGDSVAQLLVASHSISLIDIEEKKVVMTFPGHVSPVSTLQVITNEFFISGAEGDRFLNVYDIHSGMTKCVLVAESDIKELSHSGQADSIAVTTEDGSLEIFVDPLVSSSTKKRGNKSKKSSKKIQIVSKDGRKVPIYNAFINKDLLNVSWLQNATMPYFKNLQWREIPNEYTVEISLNWNNKNKSADRDLHGKDLASATNYVEGNARVTSGDNFKHVDDAIKSWERELTSLEQEQAKPPQANELLTETFGDKLESSTVARISGKKTNLKGSNLKTATTTGTVTVILSQALQSNDHSLLETVLNNRDERVIRDTIFRLKPALAVILLERLAERIARQTHRQGPLNVWVKWCLIIHGGYLVSIPNLMSTLSSLHSTLKRRSDLLPRLLALDARLDCTINKFKTLNYEAGDIHSSEPVVEEDEDDVEYNEELDDAGLIEDGEESYGSEEEEEGDSDNEEEQKHTSSKQDGRLETEQSDGEEEAGYSDVEME
notes: Utp5, S. cerevisiae, subunit of UtpA; No tag is named for it in either strain; strains are in Supplementary Data 1; source: endogenous, S. cerevisiae YSK32, co-purified with Utp10-GFP; overexpressed (galactose promoter) in S. cerevisiae YSK122, co-purified with Utp15-mCherry

binding result (Utp10-3C-GFP [2]): binds | binding result (Utp4): binds
B2: Utp8 (natural protein, S. cerevisiae, UniProt P53276 1-713, looked up)
chain: MPSLSQPFRLATLPKIASLSNFSLQADYVQVADGTFNESTNNITLGISGSSISQYIINPTPKLTFDYPIPSTNIITACNAEKGQANIDGNIEASTDDEANNEKTINTQKKRNVEIWAFGLMVNKGNYTLNVITKALEDTTDTSNDHLSESDIDNKAYTGSDEFLSQYKIKAKAKVMSIKIDTKNSLVIAILQNGLIEIFDFKLTLLHSFDISYDNLKYAKWFTENGTEYVFVLCPLQDDKVCYKLLELTDCGSGESSPIKELSSTIIEGFSFENSKLCYQFGKLYKLNQGKIYIYSLPHCQLQQVIEFPMVDKLSPGDDLISFQPVSVNRVLLTVNNVIYLLDLLHCSTLSQRELTHVKTFQLLKSAVINSEKSHNSKTIAIGISTKNGPNPTSSLEIINIDVGTNTLKDSLGKSFQVGNNDSSVILKPLFDDKDINDKRVKCNDVSGDSSVPVLHCNEVIEKLSALQDNDITSFDDIFFKELKIKEEHYTEKDRYISDPGFLNKVLDLIFGKFSGNDYPKTLTFLLTHPLFPLSRTRNLLSLLRDQPRLFKQAIVTCPNLPLNELLEELFSIRNRELLLDISFRILQDFTRDSIKQEMKKLSKLDVQNFIEFITSGGEDSSPECFNPSQSTQLFQLLSLVLDSIGLFSLEGALLENLTLYIDKQVEIAERNTELWNLIDTKGFQHGFASSTFDNGTSQKRALPTYTMEYLDI
notes: Utp8, S. cerevisiae, subunit of UtpA; No tag is named for it in either strain; strains are in Supplementary Data 1; source: endogenous, S. cerevisiae YSK32, co-purified with Utp10-GFP; overexpressed (galactose promoter) in S. cerevisiae YSK122, co-purified with Utp15-mCherry
